Experimental findings from PMC5559466 are described below.

This series has as its target T1, His6-Sll0649 (OmpR family response regulator) (Synechocystis sp. PCC 6803) (UniProt P72948).
T1 sequence: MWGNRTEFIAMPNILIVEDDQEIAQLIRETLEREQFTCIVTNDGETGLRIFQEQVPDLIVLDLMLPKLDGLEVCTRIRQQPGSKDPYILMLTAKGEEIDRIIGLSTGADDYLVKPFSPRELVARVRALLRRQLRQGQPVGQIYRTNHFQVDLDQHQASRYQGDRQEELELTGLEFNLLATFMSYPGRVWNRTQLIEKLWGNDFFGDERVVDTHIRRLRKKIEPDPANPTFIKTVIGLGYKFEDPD
In words: EMSA. The settings on record: EMSA: 20 mM Tris-base pH 7.9, 1 mM DTT, 10 mM MgCl2, 0.2 mg/mL BSA, 5% glycerol, 1 mg/mL poly(dI-dC), about 10 ng probe, 20 min at 25 C, 6% native PAGE. (A gel shift assay detects complexes by their altered migration in electrophoresis.)

As to “AGCCAGTGGCGATAAGTCAGATCCTAGACCCCGACTTTTTTCCAAAATCAGAATAAATACAAAAAAAAGCCCTCTAAAACAATGACCTTGTCCTGAAAAACTGACACAAAAATTTCATACCGTCGTCATAGCCCTGTCATACTCGTCCCCTACATTAATAAATGTCAGCCCAAGCCGTTTCTTATCGCCACTGGCT (double strand) [Pslr1204 EMSA probe]”, the binding entry was “no binding”.
